Experimental findings from paper PMC7062751 are described below.

Test [1] addresses free SUMO1 (UniProt P63165). The test can be described thus: pull-down (IP: TEX264-GFP) with immunoblot, quantified band ratio. Particulars: purified GFP-tagged TEX264 incubated with free SUMO1; parent: 1.
Test [2] deals with TEX264^SIM2*-FLAG (SIM2-mutated variant) (UniProt Q9Y6I9). The test can be described thus: co-IP; tandem affinity purification from ΔTEX264 HEK293 co-expressing FLAG-tagged TEX264 and HA-SUMO1: FLAG IP under native conditions, then anti-HA IP after boiling in 1% SDS; eluates probed for TOP1.
Sequence of UniProt Q9Y6I9 (Q9Y6I9 whole entry, stated change not applied): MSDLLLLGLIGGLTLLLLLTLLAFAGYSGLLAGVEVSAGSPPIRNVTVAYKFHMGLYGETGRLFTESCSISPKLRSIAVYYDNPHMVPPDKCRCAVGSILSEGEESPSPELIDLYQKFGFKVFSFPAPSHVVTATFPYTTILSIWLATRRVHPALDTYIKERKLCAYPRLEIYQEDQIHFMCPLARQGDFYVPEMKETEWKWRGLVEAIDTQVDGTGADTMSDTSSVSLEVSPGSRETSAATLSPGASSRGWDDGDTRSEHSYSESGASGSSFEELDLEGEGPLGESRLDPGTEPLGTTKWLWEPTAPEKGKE

Sequence of UniProt P63165 (P63165 1-97): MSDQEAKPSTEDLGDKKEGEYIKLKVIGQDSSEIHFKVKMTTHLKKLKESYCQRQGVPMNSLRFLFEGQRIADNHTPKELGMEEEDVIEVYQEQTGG

For “GFP-tagged TEX264, wild type (from UniProt Q9Y6I9) SIM1*”, the ratio to parent in test [1] stood at 0.25.

Take “GFP-tagged TEX264, wild type (from UniProt Q9Y6I9) SIM2*”: the ratio to parent in test [1] worked out at 0.

For the substance “SUMO1-modified TOP1 (HA-SUMO1 conjugated to endogenous TOP1) (from UniProt P11387 1-765; P63165 1-97)”, the percent less co-immunoprecipitated than with TEX264^WT in test [2] was determined as 70%.
